Laboratory results as given in the DeepSol protein solubility set.

Test: soluble on expression in E. coli; label from the status in PepcDB or PDB records

Sequence | soluble on expression in E. coli
MSTAEQIATLENRINELELENKRLHETVAYLTRKLYGRSSEKTSALSVGQVSLFDEAEVYAVPQAPEPDLKEVQGYIRRKYKGQRTDLLKDIPHDKRLCTLAEEDRYCEACGTDLVSVGKEFIRTEIEFIPAKIRVIDYYRETFECRTCRKNGEPYMEKSPMPYPVIQHSMASPSTVAWIMHQKFVNHLPLYRQENEWKMLGVNLKRETMSNWILAAARDWLMPLVDLMHKKLLQEKYLHADETTVQVLNEEGRSNTTNSYMWVYSSGKYCKKQIRLFQYQPGRNGKYPQEFLKGFSGFLHTDAYSGYKKVPEITRCMCWTHLRRYFRDALPKDTQSPEATIPSQGIRFCNKLFEIEETLEKLTQEQRRLERLKQETPVLEAFWSWVDSVKDKVLPKSKIGEAIQYALNNKEDFMNYLLDGNCSISNNLSENSIRPFTLGRKNWLFSGSPRGADASAAVYSIVESAKANDINPYKYLYYIFSELPGVQFGQNPEFLEDYLPWSPDVQAACK | soluble
MSTDIDCIVIGAGVVGLAIARALAAGGHEVLVAEAAEGIGTGTSSRNSEVIHAGIYYPADSLKARLCVRGKHLLYEYCAARGVPHQRLGKLIVATSDAEASQLDSIARRAGANGVDDLQHIDGAAARRLEPALHCTAALVSPSTGIVDSHALMLAYQGDAENDGAQLVFHTPLIAGRVRPEGGFELDFGGAEPMTLSCRVLINAAGLHAPGLARRIEGIPQDSIPPEYLCKGSYFTLAGRAPFSRLIYPVPQHAGLGVHLTLELGGQAKFGPDTEWITTEDYTLDPRRADVFYAAVRSYWPALPDGALAPGYTGIRPKISGPHEPAADFAIAGPASHGVAGLVNLYGIKSPGLTASLAIAEETLARLAALEHHHHHH | not soluble
MSTENTLSVADLARENVRNLVPYQSARRLGGNGDVWLNANEFPTAVEFQLTQQTLNRYPECQPKAVIENYAQYAGVKPEQVLVSRGADEGIELVIRAFCEPGKDAILYCPPTYGMYSVSAETIGVERRTVPALENWQLDLQGISDNLDGTKVVFVCSPNNPTGQLINPQDLRTLLELTRGKAIVVADEAYIEFCPQATLTGWLVEYPHLVILRTLSKAFALAGLRCGFTLANEEVINLLLKVIAPYPLSTPVADIAAQALCPQGINAMRDRVAQTVQERQYLVNALQQTACVEHVFDSETNYILARFTASSSVFKSLWDQGIILRDQNKQPSLSGCLRITVGTRQENQRVIDALRAEPV | not soluble
MSTETIEIFNNSDEWANQLKHALSKGENLALLHGLTPDILDRIYAYAFDYHEKGNITDAEIYYKFLCIYAFENHEYLKDFASVCQPKKKYQQAYDLYKLSYNYFPYDDYSVIYRMGQCQIGAKNIDNAMQCFYHIINNCEDDSVKSKAQAYIELLNDNSEDNGLEHHHHHH | not soluble
MSTFIRGPICGTDNCPSRLWRIIDGRRTCQYGHVMEGDVEFNDDEDDLNGLGAGVITRRLNLTTNATGSFQSSQLTNSQLLQQQQRQSHKKFKKLIGHEAKLLFLKSFQFILKRQIRWLITEMRFPKEFEHVAKIIWLKILKTINDQPQEELKLQLHMTSTISILYLASTHLSLPVYTCDYIKWICTAKMPYFQASEILPKSWRIQLPNYYVSILEGSISPFNGQLYNKIALTCGMIHFKEFFNSEISCQGLLLKLVMQCALPPEFYFYTKQVIEFEETDIRNLTLWERTDERHTGRVSNHAELRVLSYFMLTINWMLSFDRDRQYPLKWILSLTESLTQRTTTSESIGRNIVKVVYPDKPTSSDYFQWSEEETLEFLKWMEKQFLPTQTKSLHNENGSMEMTIDQKIARRKLYKIFPLDREANHDGEFNDSTHQLTFIEDLQERYAKQTPFFESNKIRDSLNYQEANPPARKEAIGRLLTHIASQLLVDFAISKEQLKDCISRIKNACLHRMN | not soluble
MSTHLQGSLFDQTDELGLGPLDGLRRTVLGAGAWIDLLPGWLSGADALFERLAADVPWRAERRKMYDQTVDVPRLLAYYRAGDTLPHPVLAEARDALSAHYVAELGEPFTTAGLCYYRDGRDSVAWHGDRIGRGAREDTMVAILSVGAPRDLALRPRGGGDVLRRPLGHGDLIVMGGSCQRTWEHAIPKSTRAAGPRISIQFRPSGVNLEHHHHHH | soluble
MSTLELHHIGKSYQSVMVLDRIDLHVPPGSRTAIVGPSGSGKTTLLRIIAGFETPDAGKVILQGKAMFDGTTYVPAHKRGIGFVPQDGALFPHFTVAGNIGYGLKGSQRDKERRINELMDMVALDRRLSALWPHEISGGQQQRVALARALAQRPVLMLLDEPFSALDTALRASTRKAVAELLSEANIASILVTHDQTEALSFADQVAVMRAGKLAHVGPPQELYLRPVDEPTATFLGETLMLTAQLGTGLAHCALGQVKVDNPHRRGEARIMLRPEQITLTPLRPEQYNAASCLAKVIAIDFAGFISTLTLQIISSGETIEIKTISREDLHVGLTVGLDIMGQAHIFAE | not soluble
MSTQEVNITLTDFINQLDSNAEQVSFEQVMKVISENYNYLPATFNNGDLFNEAGTNEGSCKIFYFAKLNNLSEQQTLACFGRFYREDVVNNPQGNDHGNIRNFMQSGWSKVEFNSVALTPLT | not soluble
MSTQVQDRIHDRRELTAVLLRALEQRHEVLDAIVDSEDHAEALTTVAGLLDTSEAYAEAVLNLTFRRLTKVERLRIQTELKDLDATLEWTSTDRPASTGRNFRLRPFTDTEEDAELFRRRCGEQVDDAGAQWSEDRVEKERTEGLSRVDDESAAWFVCEDTAENTAVGMVFGELSGREVDVAIWIAPDARKKGYGTAAVKHSRQELAAEFPGTVLVVR | not soluble
MSTTDDTHNTLSTGKCPFHQGGHDRSAGAGTASRDWWPNQLRVDLLNQHSNRSNPLGEDFDYRKEFSKLDYSALKGDLKALLTDSQPWWPADWGSYVGLFIRMAWHGAGTYRSIDGRGGAGRGQQRFAPLNSWPDNVSLDKARRLLWPIKQKYGQKISWADLFILAGNVALENSGFRTFGFGAGREDVWEPDLDVNWGDEKAWLTHRHPEALAKAPLGATEMGLIYVNPEGPDHSGEPLSAAAAIRATFGNMGMNDEETVALIAGGHTLGKTHGAAAASHVGADPEAAPIEAQGLGWASSYGSGVGADAITSGLEVVWTQTPTQWSNYFFENLFKYEWVQTRSPAGAIQFEAVDAPDIIPDPFDPSKKRKPTMLVTDLTLRFDPEFEKISRRFLNDPQAFNEAFARAWFKLTHRDMGPKARYIGPEVPKEDLIWQDPLPQPLYQPTQEDIINLKAAIAASGLSISEMVSVAWASASTFRGGDKRGGANGARLALAPQRDWDVNAVAARVLPVLEEIQKTTNKASLADIIVLAGVVGIEQAAAAAGVSISVPFAPGRVDARQDQTDIEMFSLLEPIADGFRNYRARLDVSTTESLLIDKAQQLTLTAPEMTVLVGGMRVLGTNFDGSQNGVFTDRPGVLSTDFFANLLDMRYEWKPTDDANELFEGRDRLTGEVKYTATRADLVFGSNSVLRALAEVYACSDAHEKFVKDFVAAWVKVMNLDRFDLQ | not soluble
MSTTFPLHTESFMLLDSGCLTNSDYFLPFALTDVLTTFSGMQHQPIIHFWQLDQAMILGMKDTRVPHLKEGIASLQENDYSVVVRNAGGLGVIADSGILNVSLILPNNSEHKLSIDAAYELMWAWLRQSFPEKEIDAFEITTSYCPGTYDLSIGGQKFAGIAQRRVKDGISVMIYISVNGNQLARGEVVRDFYLAGLQEQFGENGYPPVDPAVMANLETLIETPLTIDAVKTRLIEALPQQFEKSIDPNLTEPIITSEWFQTNLTVQLEKMAQRNALIKGEIL | not soluble
MSTYQAATIVAAPNEFRVPFPPFVQISKVQFQREAGSRLLAASGWDGTCRVYEVGKLGDISEKLVFTHGKPLLTCTFAGYNKVAFGGVDHNVKLADIETGNGTQLGSHALAVRCMEFNPMSSLIVSGGWDSSVKLWDARSYGNGAIESVNVSSSVYAMDVLKHTILVGTKDRKIFMYDSRKLREPLQVRDSPLKYQTRAVQFFPTGEAFVVSSIEGRVAVEYVDQSGEEMMKRKYAFKCHREKDTDGTELIHPVHTVAFHPKYGTFATGGADGIVNIWDPFNRKRIIQLHKFETSISSLSFNEDGSQLAIATSYQYEKEIDPSPLPNNSITIRHITDPESRPK | not soluble
MSVAETEIPIPAATPSLTDACVHCGFCLSDCPSYRVLGRETDSPRGRVYLMDSLQQGRIELSDTVVEHFDTCLGCLACTSACPSGVQYDQLIEEMRQRIAQEHRRPWPEAIWRKLLEHHHHHH | not soluble
MSVATGSSETAGGASGGGARVFFQSPRGGAGGSPGSSSGSGSSREDSAPVATAAAAGQVQQQQQRRHQQGKVTVKYDRKELRKRLVLEEWIVEQLGQLYGCEEEEMPEVEIDIDDLLDADSDEERASKLQEALVDCYKPTEEFIKELLSRIRGMRKLSPPQKKSV | soluble
MSVDKSPVYEVKAVPVEKVLANDYNPNVVAPPEMKLLELSIWEDGFTMPCVCYYNKEEDNYILVDGYHRYTVLKTSKRIYKRENGLLPIVVIDKDLSNRMSSTIRHNRARGMHN | soluble
MSVDKSPVYEVKAVPVEKVLANDYNPNVVAPPEMKLLELSIWEDGFTMPCVCYYNKEEDNYILVDGYHRYTVLKTSKRIYKRENGLLPIVVIDKDLSNRMSSTIRHNRARGMHNIELMCNIVAELDRAGMSDQWIMKNIGMDRDELLRLKQISGLADLFANREFSIPDEVAPTETERKTL | not soluble
MSVDPACPQSLPCFEASDCKESSPMPVICGPEENYPSLQMSSAEMPHTETVSPLPSSMDLLIQDSPDSSTSPKGKQPTSAENSVAKKEDKVPVKKQKTRTVFSSTQLCVLNDRFQRQKYLSLQQMQELSNILNLSYKQVKTWFQNQRMKSKRWQKNNWPKNSNGVTQKASAPTYPSLYSSYHQGCLVNPTGNLPMWSNQTWNNSTWSNQTQNIQSWSNHSWNTQTWCTQSWNNQAWNSPFYNCGEESLQSCMHFQPNSPASDLEAALEAAGEGLNVIQQTTRYFSTPQTMDLFLNYSMNMQPEDV | soluble
MSVEAAKNARELLLKEYRAVLSTHSKKWPGFPFGSVVPYCLDAEGRPLILISRIAQHTHNLQADPRCSMLVGERGAEDIQAVGRLTLLAEARQLAEEEVAAAAERYYRYFPESADYHRVHDFDFWVLQPVQWRFIGGFGAIHWLAAERVPLANPFAGEAERGMVEHMNSDHAAAIAHYVELAGLPAHAAAQLAGIDTEGFHLRIGQGLHWLPFPAACGNPGAVRQALVQLARAERWPTVEPEQG | soluble
MSVETILVVGGGISGITTAVEAAEVGYNTVLVEKKPYLGGRAAQLNKYFPKLCPPYCGLEMNFRRIKPNPKITVYTMTEVESVSGQEGNYSVRLKVSPRFVNEKCTACNACAEACPVERPNEFNFGMDKTKAAYLPHVLSYPMRYVIDRDACKDNSCDKCVKACKYNAIDLNMKPQTIEMKVGSIVYATGWNPYDATRMDNLGFGRVKNVITNMMMERLAAPNGPTGGKLLRPSDNKEVKKVVFVQCAGSRDENHLNYCSSICCMASLKQATYVRERIPDSQVVVAYIDLRAPGKYEEFLNKVEADANVKLVKGKVAKIEEDKATGGVILEFEDVEGGGKRHEHADMAVLATGMEPCVKANSMLSFEENGFINGGSAAGIYSTGVAKRPSDVTTAIQDATGMALKSIQSLVRSLEHHHHHH | not soluble
MSVIKIEKALKLDKVIFVDVRTEGEYEEDHILNAINMPLFKNNEHNEVGTIYKMQGKHEAIQKGFDYVSYKLKDIYLQAAELALNYDNIVIYCARGGMRSGSIVNLLSSLGVNVYQLEGGYKAYRNFVLEYLRHVMDTKNFVSVHGLTGTGKTDLLHLLDENGIDVLDLEGIAKNSGSTFGFITFDKKPPSQKNFETKLFESIFFSKENYIFVESESKRVGSVTVPNEIFEAMTREGHHILLECDIENRVDRLCRDYIYDKDEGNILILKECINKFRKRLGNKVVDDYIDLLESGEYKELVKRYLLEYYDPLYMHSVEKYKYSKIINFNDTQKALEDVIDLYESILEGESEC | not soluble
MSVIYQTTITRIGQSAKEALGEQMLITFREGAPADIEEFCFIHCHGELTGALQPGARCELGQHCYPVTAVGSVAEQNLRELGHITLRFDGLREAEFPGTVHVAGPVPDDIAPGCILTFVA | not soluble
